Assay results from the supplement of paper PMC7125110.
± gives the standard error. Variants at the floor of the assay were thinned out.

B1: glmS ribozyme (parent)
chain: AUAAAAGCGCCAGAACUACAGAAAUGUAGUUGACGAGGAGGAGGUUUAUCGAAUUUUCGGCGGAUGCCUCCAAA

Variants of: B1
Experiment: self-cleavage kobs at 2500 uM GlcN6P; higher = faster cleavage; RNA array
Conditions: with glucosamine-6-phosphate
Procedure, shortened: (§1)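 Over ~14 h at 37 °C, tiles were imaged as glucosamine-6-phosphate (40 μM to 10 mM) in HEPES/KCl/Mg(OAc)2 buffer flowed across sequenced MiSeq chips. The chips carried barcoded ribozyme variants transcribed in situ by E. coli RNA polymerase and tracked with a hybridised Cy3 probe. After normalisation to baseline and to non-cleaving reference variants, one- or two-exponential decay fits of per-tile medians gave kobs. kcat and KM followed from weighted Michaelis–Menten fits across concentrations.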

AUAAAAGCGCCAUAACUACAGAAAUGUAGUUGAUGAGGGGGAGGUUUAUCGAAUUUUCGGCAGAUGCCUCCAAA and AUAAAAGCGCCAUAACUACAGAAAUGUAGUUGGCGAGGAGGAGGCUUAUCGAAUUUUCGGCGAAUGCCUCCAAA cannot be ordered by “self-cleavage kobs at 2500 uM GlcN6P” value: less than 1e-05 s⁻¹ for the first, less than 1e-05 s⁻¹ for the second.

Going from AUAAAAGCGCCAUAACUACAGAAAUGUAGUUGACGAGGAGGAGGUUUUUCGAAUUUUCCGCUGAUGCCUCCAAA to AUAAAAGCGCCAAAUCUACAGAAAUGUAGUUGACGAGGAGGAGGUUUAUCGAAUUUUGGGCGGAGGCCUGCAAA, the “self-cleavage kobs at 2500 uM GlcN6P” value rises from less than 1e-05 s⁻¹ to 7.13e-05 ± 3.5e-05 s⁻¹.

Going from AUAAAAGCGCCAUAUCUACAGAAAUGUAGUUGACGAGGAGGAGGUUUAUCGAAUUUUCGGCGGAUGCCUCUAAA to AUAAAAGCGCCAGCACUACAGAAAUGUAGUUGGGGACGAGGAGGUUUAUCGAAUUUUCGCCGGAUGCCUCCAAA, the “self-cleavage kobs at 2500 uM GlcN6P” value falls from 5.99e-05 ± 2.5e-05 s⁻¹ to less than 1e-05 s⁻¹.

First: AUAAAAGCGCCAAAACUACAGAAAUGUAGAUGACGAGGAGGAGGUUUAUCGAAUUUUAGGCGGAUGCCUCCAAA
Second: AUAAAAGCGCCAUAACUACAGAAAUGUAGUUGACGGGGAGGAGGUUUAUCGAAUUUUCGAUGGAUGCCUCCAAA
The “self-cleavage kobs at 2500 uM GlcN6P” value of the first is higher: 0.000138 ± 3.4e-05 s⁻¹ for the first, less than 1e-05 s⁻¹ for the second.

AUAAAAGCGCCAGCAAUACAGAAAUGUAGUUGACGAGGAGGAGGUUUAUCGAAUUUUCGGCGAAUGCCUCCAAA and AUAAAAGCGCCACAACUACAGAAAUGUAGUUGAAGAGGAGGAGGUUUAUCGAAUUUUCGGCGGAUGUCUCCAAA cannot be ordered by “self-cleavage kobs at 2500 uM GlcN6P” value: less than 1e-05 s⁻¹ for the first, less than 1e-05 s⁻¹ for the second.

Going from AUAAAAGCGCCUGAACUACAGAAAUGUAGUUGACGAGGAGGAUGUUUAUUGAAUUUUCAGCGGAUGCCUCCAAA to AUAAAAGCGCCAUAAUUACAGAAAUGUAGUUGACGAGGUGGAGGUUUAUCGAGUUUUCGGCGGAUGCCUCCAAA, the “self-cleavage kobs at 2500 uM GlcN6P” value rises from less than 1e-05 s⁻¹ to 0.000359 ± 0.00012 s⁻¹.

First: AUAAAAGCGCCAUAACUACAGAAAUGUAGUUGACGAGGAGGAUGUUUAUCGAAUUUUCGGGGGAUGCCUCCAAA
Second: AUAAAAGCGCCACAACUACAGAAAUGUAGUUGACGAGGAGAAGGAUUAUCGAAUUUUCGGCGGAUGCCUUCAAA
The “self-cleavage kobs at 2500 uM GlcN6P” value of the first is lower: less than 1e-05 s⁻¹ for the first, 8.8e-05 ± 2e-05 s⁻¹ for the second.

AUAAAAGCGCCAAAACUACAGAAAUGUAGUUGACAAGGAGGAGAUUUAUCGAAUUUUCGGCGGAUGCCUCCAAA and AUAAAAGCGCCAUAACUACAGAAAUGUAGUGGACGACGAGGAGGUUUCUCGAAUUUUCGGCGGAUGCCUCCAAA cannot be ordered by “self-cleavage kobs at 2500 uM GlcN6P” value: less than 1e-05 s⁻¹ for the first, less than 1e-05 s⁻¹ for the second.

AUAAAAGCGCCACAACUACAGAAAUGUAGUGGACGGGGAGGAGGUAUAUCGAAUUUUCGGCGGAUGCCUGCAAA and AUAAAAGCGCCACAACUACAGAAAUGUAGUUGACGAGGAGGACGUUUAUCGAAUUUGCGGCGGAUGCCUCCAAA cannot be ordered by “self-cleavage kobs at 2500 uM GlcN6P” value: less than 1e-05 s⁻¹ for the first, less than 1e-05 s⁻¹ for the second.

AUAAAAGCGCCAAAACUACAGAAAUGUAGUUGACAAGGAGGUGGUUUAUCGAAUUUUCGGCGGAUGCCUCCAAA and AUAAAAGCGCCAAAACUACAGAAAUGUAGUUGCCGAGGAGGAGGUUUAUCGAAUUUUCGGCGGAUGCCUUCAAA cannot be ordered by “self-cleavage kobs at 2500 uM GlcN6P” value: less than 1e-05 s⁻¹ for the first, less than 1e-05 s⁻¹ for the second.

AUAAAAGCGCCACAACUACAGAAAUGUAGUUGACGAGGAGGAGGUUUAUCGAAUUUUCAGCGGAUACUUCCAAA and AUAAAAGCGCCAGCUCUACAGAAAUGUAGUUGACGAGGAGGAGGUUUAUCGAAUUUUCGGUGGAUGACUCCAAA cannot be ordered by “self-cleavage kobs at 2500 uM GlcN6P” value: less than 1e-05 s⁻¹ for the first, less than 1e-05 s⁻¹ for the second.

AUAAAAGCGCCAUAACUACAGAAAUGUAGUCGACGAGGAGGAGUUUUAUCGAAUUUUCGGCGGUUGCCUCCAAA and AUAAAAGCGCCAUAACUACAGAAAUGUAGUUGACAAGGAGGAGGUUUAUCGAAUUUACGGCGGAGGCCUCCAAA cannot be ordered by “self-cleavage kobs at 2500 uM GlcN6P” value: less than 1e-05 s⁻¹ for the first, less than 1e-05 s⁻¹ for the second.

First: AUAAAAGCGCCAGCACUACAGAAAUGUAGUUGACGAGGCGGAGGUUUAUCGAAUUUUCGGCGGAUGCCUCUAAA
Second: AUAAAAGCGCCAAAACUACAGAAAUGUAGUUGACGAGGAGGAGGUUAAUCGAAUUUUCGGCGGAUACCUCCAAA
The “self-cleavage kobs at 2500 uM GlcN6P” value of the first is 2.1-fold lower: 4.93e-05 ± 1.7e-05 s⁻¹ for the first, 0.000103 ± 2.2e-05 s⁻¹ for the second.

AUAAAAGCGCCACAACUACAGAAAUGUAGUUGACGAGGAAGAGGUUUAUCGAAUUUUCGUCGGAUGCCUCCAAA and AUAAAAGCGCCAUAACUACAGAAAUGUAGUUGACGAGAAGGAGGUUUAUCGAAUAUUCGGCGGUUGCCUCCAAA cannot be ordered by “self-cleavage kobs at 2500 uM GlcN6P” value: less than 1e-05 s⁻¹ for the first, less than 1e-05 s⁻¹ for the second.

Going from AUAAAAGCGCCAUAACUACAGAAAUGUAGUUGACGAGGAGGAGGUUAAUCGAAUUUUCGGCGGAUGCCUCGAAA to AUAAAAGCGCCAUAACUACAGAAAUGUAGUUGACGAGGAGGCGGUUCAUCGAAUUUCCGGCGGAUGCCUCCAAA, the “self-cleavage kobs at 2500 uM GlcN6P” value falls from 5.89e-05 ± 1.7e-05 s⁻¹ to less than 1e-05 s⁻¹.

Going from AUAAAAGCGCCAUAACUACAGAAAUGUAGUUGACGGGCAGGAGGUUUAUAGAAUUUUCGGCGGAUGCCUCCAAA to AUAAAAGCGCCACAACUACAGAAAUGUAGUAGACGAGGAGGAGGUUUAUCGAGUUUUCGGCGGAUGCCUCCAAA, the “self-cleavage kobs at 2500 uM GlcN6P” value rises from less than 1e-05 s⁻¹ to 0.000107 ± 3.6e-05 s⁻¹.

With AUAAAAGCGCCAAAACUACAGAAAUGUAGUUGACGAGGAGGAGGUUUAUAGAAUUUUCGGCGGAUGCCACCAAA the “self-cleavage kobs at 2500 uM GlcN6P” value was 3.87e-05 ± 1.8e-05 s⁻¹.

Variants of: B1
Experiment: self-cleavage kobs at 10000 uM GlcN6P; higher = faster cleavage; RNA array
Conditions: with glucosamine-6-phosphate
Procedure, shortened: as §1

Going from AUAAAAGCGCCAUAACUACAGAAAUGUAGUUGACAAGGAGGAGGUUUAUCGAAUUUACGGCGGAGGCCUCCAAA to AUAAAAGCGCCAAAACUACAGAAAUGUAGUUGACGAGGAGGAGGUUAAUCGAAUUUUCGGCGGAUACCUCCAAA, the “self-cleavage kobs at 10000 uM GlcN6P” value rises from less than 1e-05 s⁻¹ to 0.000143 ± 2.8e-05 s⁻¹.

First: AUAAAAGCGCCAUAACUACAGAAAUGUAGUUGACGAGGAGGCGGUUCAUCGAAUUUCCGGCGGAUGCCUCCAAA
Second: AUAAAAGCGCCACAACUACAGAAAUGUAGUAGACGAGGAGGAGGUUUAUCGAGUUUUCGGCGGAUGCCUCCAAA
The “self-cleavage kobs at 10000 uM GlcN6P” value of the first is lower: less than 1e-05 s⁻¹ for the first, 0.000294 ± 5.7e-05 s⁻¹ for the second.
